For 104 substances, amyloid nucleation score results are on record in the supplement of paper PMC12042874.

± gives the uncertainty stated by the source.

The data set can be described thus: amyloid nucleation score (Sup35N fusion, yeast selection) (log enrichment); library NNK1; higher = more nucleation; inactive = no reads after selection. In outline:
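The nucleation score is the DiMSum log enrichment of output over input reads, centred on the mode score of non-aggregating sequences. Only sequences with 100 or more input reads were scored, using Illumina sequencing of input and output plasmid inserts. Psi-negative yeast expressing Sup35N fused to peptides of 20 random codons were induced 24 hours with 100 μM copper sulfate and grown 7 days at 30°C on medium lacking adenine and uracil.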
With IFFYRYYNSHASSGERQNGR, the amyloid nucleation score was 0.175 ± 0.56.

In the case of IFNSATSTCNSRYIYIK, the amyloid nucleation score was 4.26 ± 0.074.

Turning to IFSGSPGLN, the amyloid nucleation score is 5.71 ± 0.076.

Consider IFSIGW, for which the amyloid nucleation score is 0.816 ± 0.45.

IFTAVSSVAFLSLINVLSLL yielded an amyloid nucleation score of 2.75 ± 0.21.

IFTVTGNCTGGAHTQDVVWF: the amyloid nucleation score turned out to be 0.381 ± 0.77.

IFYFYFCRYLSIQMVILGVQ had an amyloid nucleation score of 0.983 ± 0.33.

With IGCSCNPYGTFWG, the amyloid nucleation score was determined as 5.93 ± 0.066.

In turn, IGFPRLTSEDS had an amyloid nucleation score of 0.755 ± 0.4.

Consider IGFRPGRNSVWLMSRDLNFW, for which the amyloid nucleation score is -1.11 ± 1.4.

The substance IGIFIGRLCCYIFGEVMR had an amyloid nucleation score of 1.16 ± 0.16.

Consider IGITRILFVFFIDTATIKNG, for which the amyloid nucleation score is -0.855 ± 0.43.

Regarding IGMALKWNFLCKSSDRFLRV, the amyloid nucleation score is 0.296 ± 0.97.

Turning to IGMRCWTACSSKRFESCRRV, the amyloid nucleation score stood at 0.743 ± 0.44.

For the substance IGSRIKA, the amyloid nucleation score amounted to 1.04 ± 0.19.

With IGSSHRNSLVCVVEDENIQI, the amyloid nucleation score is 1.01 ± 0.5.

As to IGTYGHRMELLIGSRCKSRT, the amyloid nucleation score is -0.15 ± 0.22.

Turning to IGVKTYYTLFIGSMYFNSKG, the amyloid nucleation score was determined as 3.22 ± 0.097.

Regarding IGYEGYPYASYGCRLLEQDA, the amyloid nucleation score turned out to be 0.168 ± 0.32.

As to IGYITHITYSVLVL, the amyloid nucleation score amounted to 0.371 ± 0.3.

Take IGYRYQSMLGCEGGRWWWVV: the amyloid nucleation score came to 0.45 ± 0.58.

Take IHCDIALNRSTWLYFPFVLA: the amyloid nucleation score entry was “inactive”.

Consider IHTVTLNNHSSNGDCSSFNI, for which the amyloid nucleation score was -0.453 ± 0.43.

For IHVSENDMELVWLYGVVRI, the amyloid nucleation score is -0.708 ± 0.9.

As for IIAKNTDKVSCTVRVSFL, the amyloid nucleation score is -0.894 ± 1.4.

IICKVCLCVAPM: the amyloid nucleation score is 2.81 ± 0.19.

In the case of IIDPDREYTVSN, the amyloid nucleation score was -0.236 ± 0.95.

With IIFELKGLPLKNGMRGLKPL, the amyloid nucleation score was -0.579 ± 0.34.

Substance IIGTPVPYLGVLKTFDIKYF displayed an amyloid nucleation score of 0.125 ± 0.36.

In the case of IIIPFLSNSCEFMWL, the amyloid nucleation score turned out to be 4.81 ± 0.076.

IIISMFRGAGRIYSF showed an amyloid nucleation score of 0.336 ± 0.64.

Substance IIITFLCNYFQGWNCLLVHF came in with an amyloid nucleation score of 2.35 ± 0.1.

Regarding IIKFSNDWDVDKFSFGSVLE, the amyloid nucleation score turned out to be 0.596 ± 0.63.

In the case of IINMMLSHRDNWLFYMSFVG, the amyloid nucleation score was -0.308 ± 0.42.

As for IIQSSTGLWFIIRKVDATYV, the amyloid nucleation score was 0.812 ± 0.28.

Substance IKCHYFDVCLNVWSLCYLAC gave an amyloid nucleation score of 1.24 ± 0.46.

Take IKDRFLEALCVKCGLSYTQG: the amyloid nucleation score is -0.035 ± 0.26.

In the case of IKKEIRSVFGLSGTSVKGNN, the amyloid nucleation score was -0.118 ± 0.74.

On to IKRKG, for which the amyloid nucleation score came to 0.326 ± 0.46.

Turning to IKRLFWDWLGDRDLGRMSTP, the amyloid nucleation score entry was “inactive”.

With IKSEAWICCTSLYMNQGDRS, the amyloid nucleation score is 8.507 ± 0.065.

With IKSVMDWSSCTEL, the amyloid nucleation score is -0.144 ± 0.33.

As to IKVAN, the amyloid nucleation score stood at 1.1 ± 0.47.

Consider IKVLSYISWCGGFEKRCVGG, for which the amyloid nucleation score was determined as 1.05 ± 0.46.

Consider ILCICY, for which the amyloid nucleation score was found to be 2.48 ± 0.2.

Consider ILDHT, for which the amyloid nucleation score was found to be 0.267 ± 0.33.

In turn, ILGAI displayed an amyloid nucleation score of 1.66 ± 0.58.

ILHYWVAVSMAQWICIGLKK registered an amyloid nucleation score of 0.194 ± 0.45.

ILIEETFLS: the amyloid nucleation score entry was “inactive”.

In the case of ILMFISVFYCFCRKTRYLNR, the amyloid nucleation score turned out to be 1.01 ± 0.31.

On to ILSFSSRPVVDNHSTTW, for which the amyloid nucleation score came out at 0.682 ± 0.51.

ILSIYVSDAYKSMSETN showed an amyloid nucleation score of 1.14 ± 0.42.

With ILSNTRSVFYSSN, the amyloid nucleation score is -0.089 ± 0.38.

For the substance ILSSFILVANCWILFHPLFW, the amyloid nucleation score was -0.411 ± 0.52.

ILSSGGEKDFNSLYT: the amyloid nucleation score was -0.105 ± 0.47.

ILTLIMAL returned an amyloid nucleation score of 0.013 ± 0.33.

ILVLRGCIKLR: the amyloid nucleation score entry is “inactive”.

With ILVPLNQGEIWRNKIRYWI, the amyloid nucleation score is 0.019 ± 0.4.

IMCISFVFFNLKGYGGTG showed an amyloid nucleation score of 3.11 ± 0.082.

IMEMG: the amyloid nucleation score came to 0.11 ± 0.53.

With IMGHIKM, the amyloid nucleation score was -0.366 ± 0.44.

Substance IMMHSGPRKVPGSFGQTVHD gave an amyloid nucleation score of 0.019 ± 0.68.

For the substance IMNLSRNRVGLRVYGI, the amyloid nucleation score is -0.029 ± 0.41.

As to IMVVFGITCVPASGNFLQGW, the amyloid nucleation score entry was “inactive”.

IMYWITGTIMCY: the amyloid nucleation score stood at 0.037 ± 0.16.

As for INALYRFGWKARFSMSC, the amyloid nucleation score was determined as 0.282 ± 0.45.

As for INFCRSPMPWNGSALVNLMV, the amyloid nucleation score is -0.014 ± 0.53.

Substance INRHVAMWEDQVLSRLAMWF yielded an amyloid nucleation score of 2.53 ± 0.13.

Turning to INSRAIRLAKGDSVSWSSHG, the amyloid nucleation score is -0.244 ± 0.32.

On to INTYWAGCIFCRMFGESRLK, for which the amyloid nucleation score came to 7.253 ± 0.069.

Consider INVFNCCWRLIFVLEV, for which the amyloid nucleation score was determined as 2.72 ± 0.14.

On to INVIYNICFQVSW, for which the amyloid nucleation score stood at 8.413 ± 0.052.

As to IPDNVVF, the amyloid nucleation score is -1.27 ± 1.4.

On to IPENCSGLYWLGNYVPSIAD, for which the amyloid nucleation score is -0.439 ± 0.34.

In turn, IPKCMYGRDRICLMLVAFEN came in with an amyloid nucleation score of 1.79 ± 0.28.

The substance IPRYQSGLWGCCVY had an amyloid nucleation score of 0.489 ± 0.58.

Turning to IQAKKDPTAESQRGCC, the amyloid nucleation score amounted to 0.197 ± 0.51.

The substance IQESVMLVLVDGGVISARL yielded an amyloid nucleation score of 0.106 ± 0.3.

The substance IQFIDRPDHIARRLVWFRIG displayed an amyloid nucleation score of 0.351 ± 0.27.

In turn, IQLILSSAEFFSLAGSREYR registered an amyloid nucleation score of 2.43 ± 0.22.

On to IQYELMRMACSRNFIIAEFF, for which the amyloid nucleation score was 0.2 ± 0.72.

In turn, IRFHCLHLVAVLTKTRVFEA came in with an amyloid nucleation score of 0.064 ± 0.95.

Substance IRGCTAC displayed an amyloid nucleation score of 0.958 ± 0.76.

For the substance IRHRCSLMICFPAHTRGSAQ, the amyloid nucleation score was -0.219 ± 0.68.

As to IRKGSFPD, the amyloid nucleation score is -0.841 ± 0.82.

The substance IRLGHIQVFVSGRFENRLIF registered an amyloid nucleation score of 0.257 ± 0.56.

Regarding IRLLAKI, the amyloid nucleation score result was “inactive”.

In turn, IRLNVFFNMELMRLDLLWR registered an amyloid nucleation score of 0.311 ± 0.72.

IRMDSCRTFYLSLSWHIYCS yielded an amyloid nucleation score of 0.338 ± 0.23.

Turning to IRMLSRSLSKMSIIFHGGKG, the amyloid nucleation score is 1.33 ± 0.46.

Regarding IRSQKRYLCSGSLLCKVSRR, the amyloid nucleation score is 1.38 ± 0.51.

Take IRTNKVFASMPYDNSDTFCS: the amyloid nucleation score was -1.5 ± 1.9.

IRVLVSCVGYPFTCILKVWT: the amyloid nucleation score was 1.18 ± 0.97.

IRYKA: the amyloid nucleation score came to 4.49 ± 0.11.

Consider ISCTNCLKCPLYTSFRPLLC, for which the amyloid nucleation score is -0.13 ± 0.44.

Substance ISCWRNYLDLSSLYLFALFI registered an amyloid nucleation score of 2.53 ± 0.077.

ISDCNRMFTSLSWDMSSPLI returned an amyloid nucleation score of 1.75 ± 0.57.

Substance ISIPYICIMVFFFDAVRVDQ showed an amyloid nucleation score of 0.49 ± 0.34.

With ISLIFHVMNDLWCIAIELGS, the amyloid nucleation score stood at 0.183 ± 0.59.

ISLKG returned an amyloid nucleation score of 0.655 ± 0.59.

ISNFVGTTMIIQGSVNTVYK gave an amyloid nucleation score of 6.962 ± 0.055.

In the case of ISNLWYNCCGIRPS, the amyloid nucleation score is 5.86 ± 0.047.

Consider ISNVWNCGKFRSLGLFVTGQ, for which the amyloid nucleation score amounted to 0.247 ± 0.31.

As for ISPRDHESLTNFHVRLCHMR, the amyloid nucleation score was found to be 0.368 ± 0.57.
